Experimental findings from the DeepSol protein solubility set are described below.

The data set is described as follows: soluble on expression in E. coli; label from the status in PepcDB or PDB records.
For the sequence “MGEFIGNEEFQNFMKATGFIQEFTRRLLERSSKNIIKIPDNLSNVNQLTCLVKQFLREQQDLAVKVEKVQENQKNLSDFVKEKLTNCNCHVQLDVRNLLAKEMKLQDLRQDDGLDFSIKLPSTSSTDFTVSLNQVVDADAQQRFDLELLKMFGAGNIPHFQPPPDLYQHHHIPHTSQQVAQENLAMLANVPKLDDNNAYFDTFSPEKSGKRAKKRAAPSSAHEAQPNNGPYKCRDCEKTFRQKHGLNQHLLTHETNGAFECDGCGKRYSRQESVYRHQRSTPCTKYQNLTTVEHDDTGALF”, the “soluble on expression in E. coli” value is on record as “not soluble”. Then “MILGICGSPRKQATEHVLERALSMLEDDGLETEFFTVRGKNISPCRHCDYCLRNKECVLKDDMFPLYELLRRAAGIIIATPVYNGGVSAQIKAIMDRCRALGAEDYDSLRGKVGMGIAVGGDRCGGQEPALMQIHTFYILNGVIPVSGGSFGANLGACFWSRDTLEVLKRTHMDSKPSKRPWACLKGSWTLKDPEILFYSEFILEHHHHHH”, with “not soluble”. Then “MSLKEENYRNQVTEDFEQKKQALPHGDLFTVFSNPDLSVYEQEALMFLYAYMPIGDVTDYSGDYYLENVRLSGQTRTEMPWGDLIPDELFRHFVLPIRVNNENLDDSRRVFYGELKDRVKHLSMKDAILEVNHWCHEKVVYRPSDARTSSPLASVKTAYGRCGEESTFTVAALRSVGIPARQVYTPRWAHTDDNHAWVEAWADGQWYFFGACEPEPVLNLGWFNAPASRGMLMHTKVFGRYTGPEEIMLETPNYTEINVIDNYAPTAKATVTVTDTEGHPVSGAKVEFKIYNYAEFYTVATKYTDAEGKAFLTAGKGDMLVWASRDGKFGYAKLSFGKEDALKLSLDKKVGESYTLPMDIVPPVEGANLPEVTPEQRAENDHRMTQEDSIRNAYVATMMTDEQAKEWVNGLYGNILQPETMKDKLAAFLVASRGNHQTLKDFLSAIRKEKKHISWEEMRGMWLLENISAKDLRDVTLDVLNDHLKNTSDGEKTDTDLVKRALLNPRIANEMLTPYKKILYDAISEAVLKSAPVDAAHDAKALIEWCRKEIKIDNELNSQQIPVSPMGVWKSRVADEKSRDIFFVAAARSIGIPAWIDEVTGKVQYVSDGLSPQDVNFETSQSTQSCTGMLKASYTPIRSLSDPKYYSHFTISKFKNGTFQLLNYDEGDVDMGGGATWSNLLKNGVKLDEGYYMMVTGTRLASGAVLSNTTFFTIEPDKTTTVDLVMRESKDQVQVIGNFNSEATYRPVGGTDLQSILQTCGRGYFVVAVLGVGQEPTNHALRDIAALRSEFEQWGRKMVFLFPSEEQYKKFNTHEFKDLPSTIVYGIDVDNSIQKQIVDAMKLNQSTLPVFIIADTFNRVVFVSQGYTIGLGEQLMKVVHGEGHHHHHH”, with “soluble”; and “MGSDKIHHHHHHMKRMKGIVYGGLLSVVFVMSGCSGSQKEGRDSKEIPVEIVKVAKTVPADTRNYVGTVEEVVSSSISFQVMGNVERVLVGEGQKVREGQLLAVLDKATLENAYNASAASLRQAEDAYARMRTLHENKSLPDMKWVEVESKLEQARSMERISRKNLEDRNLYAPFGGVIGKRMVEAGENVQPGQPVFSLLRIETVNVKIAVPENEVATLGDQAAMIKVAALGGQCFEGKVTEKGIVANPISHTYEAKIRLENPSGALLPGMVCDVRLSGEESVPAITLPNNAVLIANDGGRFVWKVVDGKAKATPVRTGDLTEQGLFILEGLNEGDIVVIGGYQKISEGMRVRAL”, with “not soluble”; and “MAFRMSRDHADFVAHGGTEWDDGAFVNVKKIKIFHDWAGITLVQFDYIDGTGAIVSGLDHGTEPFQFDREHGRVPVEGARAEFWLRDDEYITIVTAFGGYCVRKIEFITNKRTFDFGGFN”, with “soluble”. For “MGSDKIHHHHHHMRIPPLKAIIAFESVARTKSVNRAAEELGLTASAVSHQLSNLESQIGQPLFQRSGRGLVLTPTGERYLTDVTGSLADLSRATERASSRTEVDILRVHSSPSFGLMWLLPRLSSFQEANGDIELNLACSYENVSFSNGFYDIDVRHGYGNWDNLEVRTVRGEFIAPLASPQYLERHPVKAPEDLLAHRLIYSETPLVQWKQWFGRAGVSLAAQKTFDFSFDRSYMSLETAALGLGIALESLMLASVKIREGLLVPVFDATHAVEVGAHHLVYPRQNAELPRVKRFLAWIEREVAGHGRAS” the value was “not soluble”.

Consider “MLKYSNHMAFKDLREYIEFMKKKGKLIEVDDEVSVDLEIAEITRKATYAHLPPLLFKRVKNYENWKIVSNIFYSIESLYEIFGTNKLESISEGFLSNLSNMPITFFDKIKSLREILGLGKVMPKAKSPSFKEEKNLDLTKIPAIKTWPKDAGRYLTFSITITKDPETDVHNLSVYRVQILNEKEAIIHWQAFKRGALTAKKYLEKGISKIPIAVVTGVDPAIAFTAASPVPHGIDKYMFAGILRGEGIDVAELDNQLLVPSHSEVVLTGYVDLNDMRLEGPFGDHMGYYTPADYYPVFKLERVYIREDPIFHVTSVGKPPLEDAWIGKAVERIFLPFAKMLVPELIDMNLPEYGLFTGIGIFSIKKYYPGQAKRVMMALWGTGQLSLLKIIIVVDQDIDVHDINQVIYAIAANVDPKRDVWVIENALTDSLDPSVPFPPLGSKLGIDATRKFKEEMGKEWPEEVRSDEVVAKKADQILNKIIKRYQTSLEHHHHHH”, for which the “soluble on expression in E. coli” value is reported as “not soluble”. For “MGSEEYFKKGAIKVEIKSGALLISPSEFKERYLPTLQDMPVLAFVRNIEAPKSWYSYLISNIEDQKSSIFPTNLPRILEISRRYFSSVKNGIVVIDALEYLTIYNGFEAIAKFLATLRDFAILDNGTVIIITEKKAWKDREWALLTSLLGKLEHHHHHH” the value was “soluble”. Turning to “MAIKLKSPWEIERMREAGALLTEVVEEVARHVEPGVSTWELDQIAYEAIRKRKAKPAFLGLYGFPATLCTSVNEVVVHGIPSKEPLKEGDILSVDVGLIYQGFAADMARTFPVGRVSPEAERLIRDTEAAFWEGMKYLRPGFRLGDVGHAIQTFLESRGYGVVREFVGHGVGREIHEDPQVPNFGKPGTGPKIRPGMTLALEPMVTLRPAPVVILDDGWAASAGRGNLAAHYENTVLVTEEGPELLTGVALARAE”, the “soluble on expression in E. coli” value was “soluble”. Then “MADESETAVKPPAPPLPQMMEGNGNGHEHCSDCENEEDNSYNRGGLSPANDTGAKKKKKKQKKKKEKGSETDSAQDQPVKMNSLPAERIQEIQKAIELFSVGQGPAKTMEEASKRSYQFWDTQPVPKLGEVVNTHGPVEPDKDNIRQEPYTLPQGFTWDALDLGDRGVLKELYTLLNENYVEDDDNMFRFDYSPEFLLWALRPPGWLPQWHCGVRVVSSRKLVGFISAIPANIHIYDTEKKMVEINFLCVHKKLRSKRVAPVLIREITRRVHLEGIFQAVYTAGVVLPKPVGTCRYWHRSLNPRKLIEVKFSHLSRNMTMQRTMKLYRLPETPKTAGLRPMETKDIPVVHQLLTRYLKQFHLTPVMSQEEVEHWFYPQENIIDTFVVENANGEVTDFLSFYTLPSTIMNHPTHKSLKAAYSFYNVHTQTPLLDLMSDALVLAKMKGFDVFNALDLMENKTFLEKLKFGIGDGNLQYYLYNWKCPSMGAEKVGIVLQ”, with “soluble”. For “MGSDKIHHHHHHMAQSDKDLTLTPLKGKSGQAYIGTYPNGDKIFVKINTTPILAALAKEQIAPQLLWAKRLGNGDMMSAQEWLDGRLLTRADMNSKQIIQVLLQMHKSKPLVNQLLQLNYKVETPLDLLLSWERSAPYQISENAYLQSVVAEMKRNLPDFKKDYATIVHGDVRHSNWVITTSGLVYLVDWDSVRVTDRMYDVAHILSHYIPHTRWVEWLSYYGYKQNTKVFQKIKWYGQLSYLSQILKYYENRDMENVNQEIYELRKFRESF” the value was “not soluble”.

As to “SNAMKKTLILGATPETNRYAYLAAERLKSHGHEFIPVGRKKGEVLGKTIINERPVIEGVDTVTLYINPQNQLSEYNYILSLKPKRVIFNPGTENEELEEILSENGIEPVIGCTLVMLSAGTF”, the “soluble on expression in E. coli” value was “soluble”.
